# Measured values as given in the supplement of paper PMC10567573.
# B1: IKZF1 (parent)
# chain: RDPFECNMCGYHSQDRYEFSSHIT
# Variants of: B1
# Assay: protein stability index of a GFP-peptide fusion (GPS, HEK-293T) (PSI 1-6); higher = more stable
# Settings: c terminus: a fixed tail appended
# 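Note: lentivirally expressed fusions sorted by FACS into six bins by GFP to DsRed ratio, PSI derived from sequencing read proportions per bin multiplied by bin number.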
row,Variant,protein stability index
1,FDPFECNMCGYHSQDRYEFSSHIT [R1F],1.88
2,RDPFECNMCGYHSQDRYESSSHIT [F19S],2.6
3,RDPRECNMCGYHSQDRYEFSSHIT [F4R],3.08
4,RDPFECNMCGYHSQDQYEFSSHIT [R16Q],2.33
5,RDPFHCNMCGYHSQDRYEFSSHIT [E5H],1.9
6,RDPDECNMCGYHSQDRYEFSSHIT [F4D],2.9
7,MDPFECNMCGYHSQDRYEFSSHIT [R1M],2.26
8,RDPFECNMCGYHSQDRYEFSWHIT [S21W],2.31
9,RDPFECAMCGYHSQDRYEFSSHIT [N7A],1.75
10,RDPFECNMCGYHSQDRYEFVSHIT [S20V],2.16
11,WDPFECNMCGYHSQDRYEFSSHIT [R1W],2.2
12,RDPFECNMCGYHSQDFYEFSSHIT [R16F],2.21
13,RDPFECNMCGYHSQTRYEFSSHIT [D15T],2.12
14,RDPFECNMCGYHSQDNYEFSSHIT [R16N],2.57
15,RDPQECNMCGYHSQDRYEFSSHIT [F4Q],2.91
16,RDPFVCNMCGYHSQDRYEFSSHIT [E5V],2.01
17,RDPFECNMCGYISQDRYEFSSHIT [H12I],2
18,RKPFECNMCGYHSQDRYEFSSHIT [D2K],1.96
19,RDGFECNMCGYHSQDRYEFSSHIT [P3G],1.94
20,RDPFECNMCGYHSQDRYEFSSHFT [I23F],2.03
21,RDPFECYMCGYHSQDRYEFSSHIT [N7Y],1.83
22,RMPFECNMCGYHSQDRYEFSSHIT [D2M],1.68
23,RDPFECPMCGYHSQDRYEFSSHIT [N7P],3.61
24,RDPFECNDCGYHSQDRYEFSSHIT [M8D],3.11

row,Variant,protein stability index
1,RDPFECNMCGYHHQDRYEFSSHIT [S13H],3.15
2,IDPFECNMCGYHSQDRYEFSSHIT [R1I],2.13
3,RDPFECNMCGYHSRDRYEFSSHIT [Q14R],2.25
4,RDPFECNMCGYHSQDRYEFSSHIY [T24Y],1.39
5,RDPFECEMCGYHSQDRYEFSSHIT [N7E],2.29
6,RDSFECNMCGYHSQDRYEFSSHIT [P3S],2.03
7,RDPFECNMCDYHSQDRYEFSSHIT [G10D],2.8
8,RDPFECNMHGYHSQDRYEFSSHIT [C9H],2.63
9,RDPFECNMCGIHSQDRYEFSSHIT [Y11I],1.86
10,RDPFECNVCGYHSQDRYEFSSHIT [M8V],2.3
11,RDPFECNMYGYHSQDRYEFSSHIT [C9Y],2.63
12,RDPFECNMCGYHSQDRSEFSSHIT [Y17S],2.43
13,RDPFECNMCGYHSQDRYEFSTHIT [S21T],2.35
14,RDPFECNMCGYHSQDRYEFGSHIT [S20G],2.05
15,RDPFECNMCGYHSTDRYEFSSHIT [Q14T],2.17
16,RDPFECNMCGYHSQDRYEFSSHIV [T24V],1.85
17,RDPFECNCCGYHSQDRYEFSSHIT [M8C],2.19
18,RDPFECNMCGVHSQDRYEFSSHIT [Y11V],2.45
19,RDPFECNMCGYDSQDRYEFSSHIT [H12D],2.69
20,RDPFECNMCPYHSQDRYEFSSHIT [G10P],2.44
21,RDPFECNMCGYHSQDRYEFSSPIT [H22P],2.12
22,RDPFECNMCGYHSQDRYEFSSKIT [H22K],1.92
23,RDPFECNMCGYHSQDRYEFSSNIT [H22N],2.28
24,RDPFECNMCGYHSQDRFEFSSHIT [Y17F],2.07

row,Variant,protein stability index
1,DDPFECNMCGYHSQDRYEFSSHIT [R1D],2.73
2,RDPFECNMCGYHSQDRYEFSSHRT [I23R],2
3,RDPFECNMCGYHAQDRYEFSSHIT [S13A],2.26
4,RDPFECNMCGYHSQDRYEFSSLIT [H22L],1.81
5,RDPFECNACGYHSQDRYEFSSHIT [M8A],1.81
6,RDPSECNMCGYHSQDRYEFSSHIT [F4S],2.52
7,RDPFECNMCGYHSQDRTEFSSHIT [Y17T],1.89
8,RDPFECNMCSYHSQDRYEFSSHIT [G10S],2.7
9,RDPFECNMCGYWSQDRYEFSSHIT [H12W],1.63
10,RDPFECNMCGYHSQDRYFFSSHIT [E18F],2.39
11,RDPFECNMCGYHSQDRYEFSSHIN [T24N],2.23
12,RQPFECNMCGYHSQDRYEFSSHIT [D2Q],2.04
13,RDPFECNMCGYHSQDRYEFSSHIR [T24R],2.24
14,RDPFECNMNGYHSQDRYEFSSHIT [C9N],3.28
15,RDPFLCNMCGYHSQDRYEFSSHIT [E5L],2.08
16,RDPFECNHCGYHSQDRYEFSSHIT [M8H],2.17
17,RDPFECNMTGYHSQDRYEFSSHIT [C9T],3.55
18,RDPFECNMCGYHSQDRPEFSSHIT [Y17P],2.81
19,RDPFECNMCGAHSQDRYEFSSHIT [Y11A],2.58
20,RYPFECNMCGYHSQDRYEFSSHIT [D2Y],1.77
21,RDPFECNMCGYHSADRYEFSSHIT [Q14A],1.98
22,RDPFECNMCGYHSQDRYEISSHIT [F19I],2.4
23,RDPYECNMCGYHSQDRYEFSSHIT [F4Y],2.07
24,RDPFECNQCGYHSQDRYEFSSHIT [M8Q],2.21

row,Variant,protein stability index
1,RDPFECNMCGYHSQDRYEFSSHIC [T24C],5.1
2,RDPFECNMCGYHSQDRYEFESHIT [S20E],2.64
3,RDPFECNMCGYHSQDRYEFSSHMT [I23M],2.27
4,RGPFECNMCGYHSQDRYEFSSHIT [D2G],1.95
5,RDFFECNMCGYHSQDRYEFSSHIT [P3F],1.44
6,RDPFECNMCGYHSQDRYEFSQHIT [S21Q],1.83
7,RDPFECNMCGYHSQDPYEFSSHIT [R16P],2.5
8,RDPFECNMCGSHSQDRYEFSSHIT [Y11S],2.62
9,RDPFECNMCGYHSQDRYEFPSHIT [S20P],2.51
10,RDPFECNMCGYHSQDRYEFSCHIT [S21C],2.21
11,RDRFECNMCGYHSQDRYEFSSHIT [P3R],2.04
12,LDPFECNMCGYHSQDRYEFSSHIT [R1L],2.31
13,RDPFECNMCGYHSQDRIEFSSHIT [Y17I],2.16
14,RDPFERNMCGYHSQDRYEFSSHIT [C6R],2.06
15,RDPFKCNMCGYHSQDRYEFSSHIT [E5K],2.07
16,RDPFECNMCGYHSQDRYDFSSHIT [E18D],2.38
17,RDPFECNMCGYHSQDRYEWSSHIT [F19W],1.44
18,RDPFECNMCGYHSQDRYEFSSIIT [H22I],1.83
19,CDPFECNMCGYHSQDRYEFSSHIT [R1C],2.47
20,RDPFECNMCGYHSQHRYEFSSHIT [D15H],1.68
21,RDPFECNMCGYHSQDRYEFTSHIT [S20T],2.04
22,RDPFECNMCGYHSQDRYEFSSHIE [T24E],2.47
